These results are taken from PMC2637981, “High-Level Production, Solubilization and Purification of Synthetic Human GPCR Chemokine Receptors CCR5, CCR3, CXCR4 and CX3CR1” (PLoS ONE, 2009).

The data set deals with the molecule itself. The experiment in a line: SEC; Ni2+ column eluate concentrated and run on Superdex 200 10/300 GL in Buffer C (1x PBS, 0.02% FC14); fractions tested by SDS-PAGE and Western blot; monomer, dimer and higher oligomer resolved. (SEC sorts molecules by how far they enter the pores of the column.)

B1: Trx-hCX3CR1 (human chemokine receptor CX3CR1 with N-terminal HP-thioredoxin, expressed from pBAD-hCX3CR1) (receptor, UniProt P49238 1-355, looked up)
chain: MDQFPESVTENFEYDDLAEACYIGDIVVFGTVFLSIFYSVIFAIGLVGNLLVVFALTNSKKPKSVTDIYLLNLALSDLLFVATLPFWTHYLINEKGLHNAMCKFTTAFFFIGFFGSIFFITVISIDRYLAIVLAANSMNNRTVQHGVTISLGVWAAAILVAAPQFMFTKQKENECLGDYPEVLQEIWPVLRNVETNFLGFLLPLLIMSYCYFRIIQTLFSCKNHKKAKAIKLILLVVIVFFLFWTPYNVMIFLETLKLYDFFPSCDMRKDLRLALSVTETVAFSHCCLNPLIYAFAGEKFRRYLYHLYGKCLAVLCGRSVHVDFSSSESQRSRHGSVLSSNFTYHTSDGDALLLL
notes: synthetic full-length gene of 1,065 bp; not shown: HP-thioredoxin (E. coli thioredoxin with E32H and Q64H), N-terminal, kept; His6, C-terminal, kept
Turning to B1, the binding result was “binds”.

B2: Trx-hCCR3 (human chemokine receptor CCR3 with N-terminal HP-thioredoxin, expressed from pBAD-hCCR3) (receptor, UniProt P51677 1-355, looked up)
chain: MTTSLDTVETFGTTSYYDDVGLLCEKADTRALMAQFVPPLYSLVFTVGLLGNVVVVMILIKYRRLRIMTNIYLLNLAISDLLFLVTLPFWIHYVRGHNWVFGHGMCKLLSGFYHTGLYSEIFFIILLTIDRYLAIVHAVFALRARTVTFGVITSIVTWGLAVLAALPEFIFYETEELFEETLCSALYPEDTVYSWRHFHTLRMTIFCLVLPLLVMAICYTGIIKTLLRCPSKKKYKAIRLIFVIMAVFFIFWTPYNVAILLSSYQSILFGNDCERSKHLDLVMLVTEVIAYSHCCMNPVIYAFVGERFRKYLRHFFHRHLLMHLGRYIPFLPSEKLERTSSVSPSTAEPELSIVF
notes: as for B1
On to B2, for which the binding result is recorded as “binds”.
